Kd data for one substance are collected here from paper PMC9351520.

The target of assay [1] is fluorescently Ct-labeled six-residue peptide bearing Nt-Asp. Briefly: fluorescence polarisation. (In general: Fluorescence polarisation rises when a labelled molecule tumbles more slowly, as on binding a larger partner.)
In assay [2] the target is fluorescently Ct-labeled six-residue peptide bearing Nt-Glu. Briefly: fluorescence polarisation.

What is called Kd is the free concentration of one partner at which half of the binding sites on the other are occupied at equilibrium, for simple one-to-one binding. With “klAte1, the Ate1 arginyl-tRNA-protein transferase (R-transferase) of Kluyveromyces lactis (enzyme)”, the Kd in assay [1] and in assay [2] was over 100 µM in each case.
